The values that follow come from US20200115464A1.

pEC50, pKd: −log10 of the molar value.

Experiment [1] addresses FcR on U937 cells. Kind of experiment: cell-based or functional assay.
Experiment [2] has as its target human CD3 on Jurkat cells (CD3+, CD20- human T-cell line) (human) (UniProt P07766). In words: FACS, serially diluted antibody on Jurkat cells (CD3+, CD20-).
The target in experiment [3] is cynomolgus CD3 on T cells of cynomolgus PBMCs (mkT cells) (cynomolgus monkey). In words: FACS, serially diluted antibody on cynomolgus PBMC T cells (mkT cells). A general note: Flow cytometry measures light scatter and fluorescence of single cells or particles in a stream.
Experiment [4] deals with His-tagged human FcγRIIA (H131) (human) (UniProt P12318). In words: SPR steady-state, His-captured FcγR, antibody injected, 25 C.
His-tagged human FcγRIIA (H131) (human), sequence (P12318 36-218 limits assumed): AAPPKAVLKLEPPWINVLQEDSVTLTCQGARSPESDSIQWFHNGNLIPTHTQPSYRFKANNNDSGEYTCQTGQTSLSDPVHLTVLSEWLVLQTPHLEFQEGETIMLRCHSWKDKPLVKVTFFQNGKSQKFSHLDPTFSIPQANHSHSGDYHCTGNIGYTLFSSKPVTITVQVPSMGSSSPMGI
In experiment [5] the target is His-tagged cynomolgus FcγRIIB (cynomolgus monkey). The description is as above.
In experiment [6] the target is His-tagged human FcγRIIIA (F176) (human) (UniProt P08637). The description is as above.
His-tagged human FcγRIIIA (F176) (human), sequence (P08637 17-208 limits assumed): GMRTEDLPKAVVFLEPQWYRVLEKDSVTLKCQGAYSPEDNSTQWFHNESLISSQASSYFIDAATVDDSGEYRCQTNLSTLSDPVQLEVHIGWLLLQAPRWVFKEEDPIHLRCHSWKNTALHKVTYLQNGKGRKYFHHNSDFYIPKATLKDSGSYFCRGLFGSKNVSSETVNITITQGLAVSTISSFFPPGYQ
The target in experiment [7] is His-tagged human FcγRIIIA (V176) (human) (UniProt P08637). The description is as above.
His-tagged human FcγRIIIA (V176) (human), sequence (P08637 17-208 F176V limits assumed): as the sequence (P08637 17-208 limits assumed) above, with F160V counted along it
Experiment [8] deals with His-tagged cynomolgus FcγRIIIA (cynomolgus monkey) (UniProt Q8SPW2). Described as above.
His-tagged cynomolgus FcγRIIIA (cynomolgus monkey), sequence (Q8SPW2 17-208 limits assumed): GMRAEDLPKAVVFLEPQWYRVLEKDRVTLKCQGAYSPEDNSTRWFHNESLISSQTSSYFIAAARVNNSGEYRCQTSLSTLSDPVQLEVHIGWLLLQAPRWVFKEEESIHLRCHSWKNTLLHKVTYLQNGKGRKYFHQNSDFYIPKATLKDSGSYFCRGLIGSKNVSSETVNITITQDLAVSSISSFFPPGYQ
The target of experiment [9] is His-tagged human FcγRIIA (R131) (human) (UniProt P12318). Described as above.
His-tagged human FcγRIIA (R131) (human), sequence (P12318 36-218 H167R limits assumed): as the sequence (P12318 36-218 limits assumed) above, with H132R counted along it
The target of experiment [10] is His-tagged cynomolgus FcγRIIA (cynomolgus monkey). The description is as above.
Experiment [11] concerns the target His-tagged human FcγRIIIB (human) (UniProt O75015). Described as above.
Experiment [12] addresses His-tagged human FcγRI (human) (UniProt P12314). In words: SPR (Biacore T200), His-captured human FcγRI, antibody injected, 25 C. (In general: Surface plasmon resonance follows binding to a sensor surface in real time, without labels.)
In experiment [13] the target is His-tagged human FcγRIIB (human) (UniProt P31994). Kind of experiment: SPR steady-state, His-captured FcγR, antibody injected, 25 C.
His-tagged human FcγRIIB (human), sequence (P31994 46-217 limits assumed): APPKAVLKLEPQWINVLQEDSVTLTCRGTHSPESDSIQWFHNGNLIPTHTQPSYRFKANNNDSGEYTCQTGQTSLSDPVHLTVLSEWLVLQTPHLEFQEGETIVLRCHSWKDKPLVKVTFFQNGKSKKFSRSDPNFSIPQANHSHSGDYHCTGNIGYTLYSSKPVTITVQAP

His-tagged human FcγRI (human), sequence (P12314 16-288 limits assumed): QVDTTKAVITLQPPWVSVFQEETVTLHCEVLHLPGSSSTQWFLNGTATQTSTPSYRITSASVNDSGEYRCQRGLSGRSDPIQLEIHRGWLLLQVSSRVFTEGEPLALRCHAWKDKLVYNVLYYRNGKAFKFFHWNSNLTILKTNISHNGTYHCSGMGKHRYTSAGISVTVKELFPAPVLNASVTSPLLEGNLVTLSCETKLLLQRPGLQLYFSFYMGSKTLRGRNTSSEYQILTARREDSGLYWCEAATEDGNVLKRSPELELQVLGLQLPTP
His-tagged human FcγRIIIB (human), sequence (O75015 17-200 limits assumed): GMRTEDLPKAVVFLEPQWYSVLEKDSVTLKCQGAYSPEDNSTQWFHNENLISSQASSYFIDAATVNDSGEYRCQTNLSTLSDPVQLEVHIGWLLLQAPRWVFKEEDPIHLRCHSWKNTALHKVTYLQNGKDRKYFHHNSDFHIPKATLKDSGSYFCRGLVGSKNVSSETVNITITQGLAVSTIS

One may read the pEC50 as −log10 of the EC50, conventionally taken in molar units. Lower therefore signals a high EC50. Turning to “Control Antibody 1: monoclonal antibody OKT-3 against human T-cell surface antigens”, the U937 Cytotoxicity Human T-cells [M] (EC50, calcein release) in [1] was 3.04e-12 M. Further, the pEC50 in experiment [2] is 9.71.
As for “Control Antibody 2: antibody SP34 reactive against the epsilon chain of the T3 complex on human T lymphocyte cells”, the pEC50 in experiment [3] was 10.15.
For orientation: pKd means the negative decadic logarithm of the Kd, by convention in mol/L. A higher pKd goes with a low Kd. Broadly, the koff is the rate constant with which the complex falls apart. A lower koff goes with a long-lived complex. One may read the kon as a measure of how fast the partners come together. A high value points to fast association. In the case of wt-IgG1 Isotype Control (antibody), the pKd is 7.96 in [4]; 7.38 in [5]; 7.89 in [6]; 7.82 in experiment [7]; 8.22 in [8]; 7.70 in [9]. Moreover, the values for the pKd in experiment [10], in experiment [11] and in [12] were 7.38, 7.64 and 8.37, respectively. The substance further came in with a T1/2 in experiment [12] of 15 min. The same substance returned an off-rate constant (koff) in experiment [12] of 0.000748 s⁻¹. This substance also came in with a kon in experiment [12] of 174000 M⁻¹ s⁻¹.
For wt-IgG4 CPPC Isotype Control (antibody), the pKd in experiment [4] was 6.92; in experiment [5], 7.02; in [13] it was 7.01; in [6], 6.59; in experiment [8] it was 7.24; in experiment [9], 7.00. In addition, the pKd is 6.71 in [10] and 7.86 in experiment [12]. Also, in experiment [12], the T1/2 stood at 5 min.
